Tests used:
cryo-EM structure = biological target: the molecule itself; experiment: cryo-EM structure
calmodulin = calmodulin (UniProt P0DP23); experiment: cryo-EM structure

binding result (calmodulin) | Binder | stoichiometry N (cryo-EM structure)
binds | truncated Xenopus laevis KCNQ1 (residues 67-610), wild type (domain or fragment) ATDPPRPTINLDPRVSIYSGRRPLLSRTNIQGRVYNFLERPTGWKCFVYHFTVFLIVLICLIFSVLSTIQQYNNLATETLFWMEIVLVVFFGAEYVVRLWSAGCRSKYVGVWGRLRFARKPISVIDLIVVVASVIVLCVGSNGQVFATSAIRGIRFLQILRMLHVDRQGGTWRLLGSVVFIHRQELITTLYIGFLGLIFSSYFVYLAEKDAIDSSGEYQFGSYADALWWGVVTVTTIGYGDKVPQTWIGKTIASCFSVFAISFFALPAGILGSGFALKVQQKQRQKHFNRQIPAAASLIQTAWRCYAAENPDSATWKIYIRKQSRNHHLMSPSPKPKKSAMVKKKKIRTERDEGSTDKMLNIPHITYDHVADDRKNDGYSVESYENTVRKPFGFLDPSTGPFIRTSSFTDDLDMEGDTLLTPITHISELKEHHRAAIKVIRRMQYFVAKKKFQQARKPYDVRDVIEQYSQGHLNLMVRIKELQRRLDQSLGKPSLFLSVSDKVKDKGINTIGSRLNRVEDKVTQMDHKLNLITDMLHHLLTNQQ | 4
binds | Xenopus KCNQ1 E150R/R221E (residues 67-610) (domain or fragment) ATDPPRPTINLDPRVSIYSGRRPLLSRTNIQGRVYNFLERPTGWKCFVYHFTVFLIVLICLIFSVLSTIQQYNNLATETLFWMRIVLVVFFGAEYVVRLWSAGCRSKYVGVWGRLRFARKPISVIDLIVVVASVIVLCVGSNGQVFATSAIRGIEFLQILRMLHVDRQGGTWRLLGSVVFIHRQELITTLYIGFLGLIFSSYFVYLAEKDAIDSSGEYQFGSYADALWWGVVTVTTIGYGDKVPQTWIGKTIASCFSVFAISFFALPAGILGSGFALKVQQKQRQKHFNRQIPAAASLIQTAWRCYAAENPDSATWKIYIRKQSRNHHLMSPSPKPKKSAMVKKKKIRTERDEGSTDKMLNIPHITYDHVADDRKNDGYSVESYENTVRKPFGFLDPSTGPFIRTSSFTDDLDMEGDTLLTPITHISELKEHHRAAIKVIRRMQYFVAKKKFQQARKPYDVRDVIEQYSQGHLNLMVRIKELQRRLDQSLGKPSLFLSVSDKVKDKGINTIGSRLNRVEDKVTQMDHKLNLITDMLHHLLTNQQ | –

From paper PMC12494784 (Nature Communications, 2025)
